Experiments:
ND2.3-GST = biological target: T1, ND2.3-GST (Homo sapiens, UniProt P03891); assay: dot blot of biotinylated Src peptides on ND2.3-GST; assay type: binding; conditions: biotinylated peptide
T1 construct: amino acids 1-188 (ND2.3-GST); made in house; host or cells: bacteria
Protocol: Src, Fyn, and ND2 recombinant proteins were prepared. The cDNAs encoding the SH3 and SH2 domains of mouse n-Src and Fyn were PCR subcloned, ligated in frame into pGEX4T-1 (Amersham Pharmacia Biotech, Baie d'Urfé, Québec), and sequenced. These plasmids, as well as plasmids encoding the unique domains of Src and Fyn in pGEX2T'6, were transformed into BL21 bacteria, and GST fusion proteins were purified by glutathione affinity chromatography. To create the ND2.1, ND2.2, and ND2.3 GST fusion proteins, cDNAs encoding amino acids 239-321 (ND2.1-GST; SEQ ID NO:7), amino acids 189-238 (ND2.2-GST; SEQ ID NO:11), and amino acids 1-188 (ND2.3-GST; SEQ ID NO:13) of human ND2 were PCR subcloned and ligated into pGEX4T-1 (the nucleotide sequence encoding ND2 is SEQ ID NO:8 and the amino acid sequence is SEQ ID NO:9; the nucleotide sequences encoding ND2.1; ND2.2 and ND2.3 are SEQ ID NOS:6, 10 and 12, respectively). Using PCR-based single nucleotide mutagenesis, all cDNAs encoding ND2 fusion proteins were corrected for differences between mitochondrial and nuclear codons to prevent premature translation termination and protein truncation. […]
(§1) Src40-58 and scrambled Src peptides were biotinylated by incubating with Sulfo-NHS-Biotin (Pierce Chemical Co., Rockford, Ill.) for 30 minutes at room temperature (SEQ ID NO:4, Src protein). […] Bound probe was then detected on film using an ECL kit.

[1] = biological target: T2, interaction between the ND2.1-GST and Src unique domain proteins (Homo sapiens, UniProt P03891, A265T); assay: ND2.1-GST probed with biotinylated Src unique domain in the presence of peptide or antibody; assay type: binding; conditions: in vitro, ND2.1-GST incubated with peptide
T2 construct: made in house; host or cells: BL21 bacteria
Source text: Detailed protocols for in vitro binding assays, pull down assays, immunoblotting, and co-immunoprecipitation techniques can be found in Pelkey et al. (Neuron 34:127-138 2002).
ND2 acts as an adapter protein for Src. […] Furthermore, the effect of Src40-58 on the interaction between Src and ND2 was examined (FIGS. 4D and 4E). […] Thus, it was concluded that amino acids 40-58 of Src interact with the region spanned by ND2.1, thereby mediating the binding between the Src unique domain and ND2.

NMDAR = assay: mEPSC whole cell recordings in cultured hippocampal neurons, NMDAR component; assay type: cell-based, rat
Protocol: Fetal rat hippocampal neurons were prepared, cultured, and used for electrophysiological recordings 12-17 days after plating. Methods for whole cell recordings are described in Pelkey et al. (Neuron 34:127-138 2002).
In contrast, in control experiments administering EPQ(pY)EEIPIA (SEQ ID NO:5) increased the NMDAR component of mEPSCs by 172±28% and application of Src40-58 decreased the NMDAR component to 56±4% (FIGS. 5D-F). […] Composite traces are shown in black, the NMDAR component in dark grey, and the AMPAR component in light grey. Scale bars are 50 ms/10 pA. […] NMDA component data were calculated as Q20′/Q2′, and AMPA component data were calculated as A20′/A2′. […] An * indicates a significant difference, Student's t-test, p<0.05. Taking our results together, it is concluded that Src-dependent regulation of the activity of NMDARs depends on expression of ND2 through its anchoring of Src to the NMDAR complex.

LTP in CA1 neurons = conditions: cited from earlier work
ND2.1-GST = biological target: T3, ND2.1-GST (Homo sapiens, UniProt P03891, A265T); assay: in vitro binding of biotinylated Src peptides to ND2.1-GST (blot / dot blot); conditions: biotinylated peptide, streptavidin-HRP detection
T3 construct: made in house; host or cells: bacteria
Protocol: Src, Fyn, and ND2 recombinant proteins were prepared. The cDNAs encoding the SH3 and SH2 domains of mouse n-Src and Fyn were PCR subcloned, ligated in frame into pGEX4T-1 (Amersham Pharmacia Biotech, Baie d'Urfé, Québec), and sequenced. These plasmids, as well as plasmids encoding the unique domains of Src and Fyn in pGEX2T'6, were transformed into BL21 bacteria, and GST fusion proteins were purified by glutathione affinity chromatography. To create the ND2.1, ND2.2, and ND2.3 GST fusion proteins, cDNAs encoding amino acids 239-321 (ND2.1-GST; SEQ ID NO:7), amino acids 189-238 (ND2.2-GST; SEQ ID NO:11), and amino acids 1-188 (ND2.3-GST; SEQ ID NO:13) of human ND2 were PCR subcloned and ligated into pGEX4T-1 (the nucleotide sequence encoding ND2 is SEQ ID NO:8 and the amino acid sequence is SEQ ID NO:9; the nucleotide sequences encoding ND2.1; ND2.2 and ND2.3 are SEQ ID NOS:6, 10 and 12, respectively). Using PCR-based single nucleotide mutagenesis, all cDNAs encoding ND2 fusion proteins were corrected for differences between mitochondrial and nuclear codons to prevent premature translation termination and protein truncation. All constructs were then confirmed by sequencing. The plasmids were transformed into bacteria, and GST fusion proteins were purified by glutathione affinity chromatography.
as §1
To detect the binding of ND2.1-GST with Src peptides, the ND2.1-GST fusion protein was purified on glutathione SEPHAROSE. […] Bound probe was then detected on film using an ECL kit (Amersham Pharmacia Biotech, Baie d'Urfé, Québec).
Src40-58, Src40-49, Src49-58, scrambled Src40-58, TAT-Src40-49, and scrambled TAT-Src40-49 peptides were biotinylated by incubating with Sulfo-NHS-Biotin (Pierce Chemical Co., Rockford, Ill.) for 30 minutes at room temperature. […] Bound probe was then detected on film using an ECL kit.

T3 sequence (P03891 239-318 A265T): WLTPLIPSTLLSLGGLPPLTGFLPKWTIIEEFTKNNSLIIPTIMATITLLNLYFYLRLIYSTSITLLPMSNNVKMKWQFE
T2 sequence (P03891 239-318 A265T): as above
T1 sequence (P03891 1-188): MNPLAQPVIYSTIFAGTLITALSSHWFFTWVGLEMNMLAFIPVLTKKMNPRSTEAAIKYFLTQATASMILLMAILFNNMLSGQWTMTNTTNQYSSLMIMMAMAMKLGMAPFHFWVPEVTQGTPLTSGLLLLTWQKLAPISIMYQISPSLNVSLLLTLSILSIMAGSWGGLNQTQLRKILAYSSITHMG

Substance: Src40-58: peptide comprising amino acid residues 40-58 of SEQ ID NO:4 (Src) (PASADGHRGPSAAFAPAAA; listed as Homo sapiens)
- binding to ND2.3-GST (ND2.3-GST): Neither Src40-58 nor scrambled Src40-58 bound
- effect on ND2.1-GST pulling down the Src unique domain protein [1]: prevented
- NMDAR component of mEPSCs, decreased to (NMDAR; control experiments, cultured hippocampal neurons): 56±4%
- NMDAR component of the mEPSCs (NMDAR; neurons treated with chloramphenicol for 48 hours): not affected
- LTP in CA1 neurons (LTP in CA1 neurons): prevented
- binding to ND2.1-GST (ND2.1-GST): bind directly

— patent US8003609B2, “Method for ameliorating pain by modification of NMDA receptors through inhibition of Src” (The Hospital for Sick Children, priority 2004, dated 2011)
